The data set concerns the molecule itself. Nature of the data set: crystal structure.

B1: GDAP1ΔTM T157P (Ganglioside-induced differentiation-associated protein 1, amino acids 1-322, T157P) (domain or fragment, mouse)
chain: GGSMARRQDEARAGVPLRVEGPPDKEVHLILYHWTHSFSSQKVRLVIAEKALKCEEHDVSLPLSEHNEPWFMRLNSAGEVPVLVHGENIICEATQIIDYLEQTFLDERTPRLMPDEGSMYYPRVQHYRELLDSLPMDAYTHGCILHPELTVDSMIPAYAPTRIRSQIGNTESELKKLAEENPDLQEAYIAKQKRLKSKLLDHDNVKYLKKILDELEKVLDQVETELQRRNEETPEEGNQPWLCGESFTLADVSLAVTLHRLKFLGFARRNWGHGKRPNLETYYERVLKRKTFNKVLGHVNNILISAVLPTAFRVAKKRAPKVLGS
As to B1, the binding result is on record as “binds”.

Source of the values: publication doi:10.1101/2022.10.28.514248 (bioRxiv, 2022).
